Source: the supplement of paper PMC11780869

System: Bacillus subtilis
Test: cleaved RNA product abundance (RNA/gDNA barcode ratio) relative to median wild-type variant (ratio to wild type); higher = more accumulation of the downstream cleavage product
Settings: cleavage site: cggR-gapA (positions -7 to +36 mutated)
How it was run: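 Reporter mRNAs (truncated aprE or tetM) carrying barcoded, mutagenized RNase Y cleavage-site windows were made from oligos with a 9% error rate and integrated into the B. subtilis chromosome. Cultures grew in LB at 37°C from OD600 0.0003 to 0.3. Cleaved RNA was gel-selected, reverse transcribed and barcode-sequenced alongside genomic DNA barcodes, with UMI collapsing. Cleaved product abundance is the RNA:gDNA barcode ratio per variant, scaled to the median wild-type variant.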

[1] = experiment (reporter, strain, medium): exp 2b: truncated aprE reporter, strain BJT200
[2] = experiment (reporter, strain, medium): exp 4a: truncated aprE reporter, strain BJT201 with 2% xylose (RNase J1 expressed)

Row | Sequence | cleaved RNA product abundance [1] | cleaved RNA product abundance [2] | cleaved RNA product abundance (experiment (reporter, strain, medium): exp 6: tetM reporter, strain 168)
1 | ACAGACGAAGGAGCCGCAAAGAAGTTATTAAGGGATAAATTATCCCTCAATATAAATATCTCTCACTTATTTAAA | 1.07 | 1.03 | –
2 | ACAGACGAAGGAGCCGCAAAGAAGTTATTAAGGGATAACTAATCCCTCAATATAAATATCTCTCACTTATTTAAA | – | 0.57 | –
3 | ACAGACGAAGGAGCCGCAAAGAAGTTATTAAGGGATAAGTAATCCCTCAATATAAATATCTCTCACTTATTTAAA | 0.555 | 0.785 | –
4 | ACAGACGAAGGAGCCGCAAAGAAGTTATTAAGGGATAATTAATCCCTCAATATAAATATCTCTCACTTATTTAAA | 1.13 | 0.759 | –
5 | ACAGACGAAGGAGCCGCAAAGAAGTTATTAAGGGATAGATAATCCCTCAATATAAATATCTCTCACTTATTTAAA | – | 0.791 | –
6 | ACAGACGAAGGAGCCGCAAAGAAGTTATTAAGGGATATATAATCCCTCAATATAAATATCTCTCACTTATTTAAA | – | 0.738 | –
7 | ACAGACGAAGGAGCCGCAAAGAAGTTATTAAGGGATCAAAAATCCCTCAATATAAATATCTCTCACTTATTTAAA | 0.804 | 1.17 | –
8 | ACAGACGAAGGAGCCGCAAAGAAGTTATTAAGGGATCAACAATCCCTCAATATAAATATCTCTCACTTATTTAAA | 1 | 0.962 | –
9 | ACAGACGAAGGAGCCGCAAAGAAGTTATTAAGGGATCAATAAACCCTCAATATAAATATCTCTCACTTATTTAAA | 0.518 | 0.429 | –
10 | ACAGACGAAGGAGCCGCAAAGAAGTTATTAAGGGATCAATAACCCCTCAATATAAATATCTCTCACTTATTTAAA | – | 0.561 | –
11 | ACAGACGAAGGAGCCGCAAAGAAGTTATTAAGGGATCAATAATACCTAAATATAAATATCTCTCACTTATTTAAA | – | 0.0917 | –
12 | ACAGACGAAGGAGCCGCAAAGAAGTTATTAAGGGATCAATAATACCTCAATATAAATATCTCTCACTTATTTAAA | – | 0.146 | –
13 | ACAGACGAAGGAGCCGCAAAGAAGTTATTAAGGGATCAATAATCACTCAATATAAATATCTCTCACTTATTTAAA | 0.0917 | 0.0833 | –
14 | ACAGACGAAGGAGCCGCAAAGAAGTTATTAAGGGATCAATAATCCATCAATATAAATATCTCTCACTTATTTAAA | – | 0.312 | –
15 | ACAGACGAAGGAGCCGCAAAGAAGTTATTAAGGGATCAATAATCCCACAATATAAATATCTCTCACTTATTTAAA | 0.192 | 0.208 | –
16 | ACAGACGAAGGAGCCGCAAAGAAGTTATTAAGGGATCAATAATCCCTAAATATAAATATCTCTCACTTATTTAAA | 0.551 | 0.657 | –
17 | ACAGACGAAGGAGCCGCAAAGAAGTTATTAAGGGATCAATAATCCCTCAAAATAAATATCTCTCACTTATTTAAA | 0.214 | 0.315 | –
18 | ACAGACGAAGGAGCCGCAAAGAAGTTATTAAGGGATCAATAATCCCTCAACATAAATATCTCTCACTTATTTAAA | – | 0.258 | –
19 | ACAGACGAAGGAGCCGCAAAGAAGTTATTAAGGGATCAATAATCCCTCAATATAAATAACTCTCACTTATTTAAA | – | 0.687 | –
20 | ACAGACGAAGGAGCCGCAAAGAAGTTATTAAGGGATCAATAATCCCTCAATATAAATACCTCTCACTTATTTAAA | 0.479 | 0.36 | –

Row | Sequence | cleaved RNA product abundance [1] | cleaved RNA product abundance [2] | cleaved RNA product abundance (experiment (reporter, strain, medium): exp 6: tetM reporter, strain 168)
21 | ACAGACGAAGGAGCCGCAAAGAAGTTATTAAGGGATCAATAATCCCTCAATATAAATATCTCTCACTTATTTAAA | 0.832 | 0.878 | 0.996
22 | ACAGACGAAGGAGCCGCAAAGAAGTTATTAAGGGATCAATAATCCCTCAATATAAATCTCTCTCACTTATTTAAA | – | 0.706 | –
23 | ACAGACGAAGGAGCCGCAAAGAAGTTATTAAGGGATCAATAATCCCTCAATATAAATTTCTCTCACTTATTTAAA | – | 0.645 | –
24 | ACAGACGAAGGAGCCGCAAAGAAGTTATTAAGGGATCAATAATCCCTCAATATAATTATCTCTCACTTATTTAAA | 0.468 | – | –
25 | ACAGACGAAGGAGCCGCAAAGAAGTTATTAAGGGATCAATAATCCCTCAATATACATATCTCTCACTTATTTAAA | – | 0.736 | –
26 | ACAGACGAAGGAGCCGCAAAGAAGTTATTAAGGGATCAATAATCCCTCAATATAGATATCTCTCACTTATTTAAA | 0.534 | – | –
27 | ACAGACGAAGGAGCCGCAAAGAAGTTATTAAGGGATCAATAATCCCTCAATTTAAATATCTCTCACTTATTTAAA | 0.197 | – | –
28 | ACAGACGAAGGAGCCGCAAAGAAGTTATTAAGGGATCAATAATCCCTCACTATAAATATCTCTCACTTATTTAAA | – | 0.224 | –
29 | ACAGACGAAGGAGCCGCAAAGAAGTTATTAAGGGATCAATAATCCCTCATTATAAATATCTCTCACTTATTTAAA | – | 0.213 | –
30 | ACAGACGAAGGAGCCGCAAAGAAGTTATTAAGGGATCAATAATCCCTGAATATAAATATCTCTCACTTATTTAAA | 0.512 | 0.61 | –
31 | ACAGACGAAGGAGCCGCAAAGAAGTTATTAAGGGATCAATAATCCCTTAATATAAATATCTCTCACTTATTTAAA | 1.02 | 0.486 | –
32 | ACAGACGAAGGAGCCGCAAAGAAGTTATTAAGGGATCAATAATCCTTCAATATAAATATCTCTCACTTATTTAAA | – | 0.353 | –
33 | ACAGACGAAGGAGCCGCAAAGAAGTTATTAAGGGATCAATAATCGCTCAATATAAATATCTCTCACTTATTTAAA | – | 0.0655 | –
34 | ACAGACGAAGGAGCCGCAAAGAAGTTATTAAGGGATCAATAATCTATCAATATAAATATCTCTCACTTATTTAAA | – | 0.209 | –
35 | ACAGACGAAGGAGCCGCAAAGAAGTTATTAAGGGATCAATAATCTCTCAATATAAATATCTCTCACTTATTTAAA | 0.312 | 0.342 | –
36 | ACAGACGAAGGAGCCGCAAAGAAGTTATTAAGGGATCAATAATGCCTCAATATAAATATCTCTCACTTATTTAAA | 0.0953 | 0.138 | –
37 | ACAGACGAAGGAGCCGCAAAGAAGTTATTAAGGGATCAATAATTCCTCAATATAAATATCTCTCACTTATTTAAA | – | 0.22 | –
38 | ACAGACGAAGGAGCCGCAAAGAAGTTATTAAGGGATCAATACTCCCTCAATATAAATATCTCTCACTTATTTAAA | – | 0.579 | –
39 | ACAGACGAAGGAGCCGCAAAGAAGTTATTAAGGGATCAATAGTCCCTCAATATAAATATCTCTCACTTATTTAAA | – | 0.828 | –
40 | ACAGACGAAGGAGCCGCAAAGAAGTTATTAAGGGATCAATATTCCCTCAATATAAATATCTCTCACTTATTTAAA | 0.709 | – | –

Row | Sequence | cleaved RNA product abundance [1] | cleaved RNA product abundance [2] | cleaved RNA product abundance (experiment (reporter, strain, medium): exp 6: tetM reporter, strain 168)
41 | ACAGACGAAGGAGCCGCAAAGAAGTTATTAAGGGATCAATGATCCCTCAATATAAATATCTCTCACTTATTTAAA | – | 1.15 | –
42 | ACAGACGAAGGAGCCGCAAAGAAGTTATTAAGGGATCAATTATCCCTCAATATAAATATCTCTCACTTATTTAAA | – | 1.23 | –
43 | ACAGACGAAGGAGCCGCAAAGAAGTTATTAAGGGATCACTAATCCCTCAATATAAATATCTCTCACTTATTTAAA | – | 1.19 | –
44 | ACAGACGAAGGAGCCGCAAAGAAGTTATTAAGGGATCATTAATCCCTCAATATAAATATCTCTCACTTATTTAAA | – | 1.08 | –
45 | ACAGACGAAGGAGCCGCAAAGAAGTTATTAAGGGATCCATAATCCCTCAATATAAATATCTCTCACTTATTTAAA | – | 0.481 | –
46 | ACAGACGAAGGAGCCGCAAAGAAGTTATTAAGGGATCGATAATCCCTCAATATAAATATCTCTCACTTATTTAAA | 0.652 | 0.722 | –
47 | ACAGACGAAGGAGCCGCAAAGAAGTTATTAAGGGATCTATAATCCCTCAATATAAATATCTCTCACTTATTTAAA | – | 0.87 | –
48 | ACAGACGAAGGAGCCGCAAAGAAGTTATTAAGGGATGAAAAAACCCTCAATATAAATATCTCTCACTTATTTAAA | 0.411 | 0.642 | –
49 | ACAGACGAAGGAGCCGCAAAGAAGTTATTAAGGGATGAAAAACCCCTCAATATAAATATCTCTCACTTATTTAAA | 0.477 | 0.485 | –
50 | ACAGACGAAGGAGCCGCAAAGAAGTTATTAAGGGATGAAAAATACCTCAATATAAATATCTCTCACTTATTTAAA | 0.114 | 0.169 | –
51 | ACAGACGAAGGAGCCGCAAAGAAGTTATTAAGGGATGAAAAATCACTCAATATAAATATCTCTCACTTATTTAAA | 0.113 | 0.101 | –
52 | ACAGACGAAGGAGCCGCAAAGAAGTTATTAAGGGATGAAAAATCCATCAATATAAATATCTCTCACTTATTTAAA | 0.141 | 0.223 | –
53 | ACAGACGAAGGAGCCGCAAAGAAGTTATTAAGGGATGAAAAATCCCCCAATATAAATATCTCTCACTTATTTAAA | – | 0.184 | –
54 | ACAGACGAAGGAGCCGCAAAGAAGTTATTAAGGGATGAAAAATCCCTAAATATAAATATCTCTCACTTATTTAAA | 0.499 | 0.445 | –
55 | ACAGACGAAGGAGCCGCAAAGAAGTTATTAAGGGATGAAAAATCCCTCAAAATAAATATCTCTCACTTATTTAAA | – | 0.333 | –
56 | ACAGACGAAGGAGCCGCAAAGAAGTTATTAAGGGATGAAAAATCCCTCAAGATAAATATCTCTCACTTATTTAAA | 0.159 | 0.314 | –
57 | ACAGACGAAGGAGCCGCAAAGAAGTTATTAAGGGATGAAAAATCCCTCAATAAAAATATCTCTCACTTATTTAAA | – | 0.217 | –
58 | ACAGACGAAGGAGCCGCAAAGAAGTTATTAAGGGATGAAAAATCCCTCAATAGAAATATCTCTCACTTATTTAAA | – | 0.192 | –
59 | ACAGACGAAGGAGCCGCAAAGAAGTTATTAAGGGATGAAAAATCCCTCAATATAAAAATCTCTCACTTATTTAAA | 0.798 | 0.692 | –
